Reference: patent US20210324111A1 (UCB, published 2021)
Positions count from the first letter of the chain named.

B1: 645gL4gH5 Fab-A26 BYbe wt (bispecific antibody, part only; not given: A26 dsscFv, linker, CH1, CL, V domains shown, not shown: another chain or arm of the molecule; a dimerising Fc or GST; small tags and cut ends)
VH: EVQLLESGGGLVQPGGSLRLSCAVSGIDLSNYAINWVRQAPGKQLEWIGIIWASGTTFYATWAKGRFTISRDNSKNTVYLQMNSLRAEDTAVYYCARTVPGYSTAPYFDLWGQGTLVTVSS
VL: DIQMTQSPSSVSASVGDRVTITCQSSPSVWSNFLSWYQQKPGKAPKLLIYEASKLTSGVPSRFSGSGSGTDFTLTISSLQPEDFATYYCGGGYSSISDTTFGGGTKVEIK
B2: 645CDR-497FW Fab nh (Fab, V domains shown)
VH: EVQLVESGGGLVKPGGSLRLSCAASGIDLSNYAINWVRQAPGKGLEWVGIIWASGTTFYATWAKGRFTISRDDSKNTLYLQMNSLKTEDTAVYYCTTTVPGYSTAPYFDLWGQGTLVTVSS
VL: B1 VL with D1A, M4L, V11L, G103Q
notes: also called 497FW/645CDR Fab nh; 645CDR -497FW/645CDR Fab nh
B3: 645CDR-2109FW Fab nh (Fab, V domains shown)
VH: B2 VH with V48I, R71V, D73K, S74A, T77S, L78A, K86R, T87A, T97R
VL: B1 VL with V11L, A44V, S66T, F72Y, F84V, Y88F, G103Q, V107L
notes: also called 2109FW/645CDR Fab nh; #3
B4: 645CDR-497FW Fab-A26 ds HL BYbe (bispecific antibody, part only; not given: A26 dsscFv, linker, CH1, CL, V domains shown, not shown: another chain or arm of the molecule; a dimerising Fc or GST; small tags and cut ends)
VH: B2 VH
VL: B1 VL with D1A, M4L, V11L, G103Q
B5: 645CDR-2109FW Fab-A26 ds HL BYbe (bispecific antibody, part only; not given: A26 dsscFv, linker, CH1, CL, V domains shown, not shown: another chain or arm of the molecule; a dimerising Fc or GST; small tags and cut ends)
VH: B2 VH with V48I, R71V, D73K, S74A, T77S, L78A, K86R, T87A, T97R
VL: B1 VL with V11L, A44V, S66T, F72Y, F84V, Y88F, G103Q, V107L

Target: T1, Human serum albumin (human, UniProt P02768 25-609)
T1 construct: Bought purified protein, injected as the analyte in SPR; also called HSA; Human albumin, ChromPure (Jackson ImmunoResearch)
Assay: SPR (Biacore), antibody captured on the chip, HSA as analyte, 25 C, 1:1 model

Row | Binder | Kd [nM] | koff [s⁻¹] | kon [M⁻¹ s⁻¹]
1 | B1 | 1.61 | 0.00025 | 156000
2 | B2 | 4.63 | 0.000601 | 130000
3 | B3 | 1.52 | 0.000227 | 150000
4 | B4 | 1.23 | 0.000186 | 151000
5 | B5 | 4.74 | 0.000651 | 137000
